From US20220119459A1 (OXFORD UNIVERSITY INNOVATION, published 2022) come the findings set out here.

One assay deals with SpyCatcher002. Briefly: 0.5 µM each, PBS pH 7.5, 25 °C, SDS-PAGE with Coomassie staining (FIG. 15A).
A further assay has as its target T1, AP-SpyTag002-MBP.
T1 construct: not shown: AP peptide tag for site-specific biotinylation; only primer DNA is printed for it
Briefly: 0.5 µM each, PBS pH 7.5, 25 °C, SDS-PAGE with Coomassie staining (FIG. 16).

Turning to SpyTag002 T3H-MBP, in the assay with SpyCatcher002, the percent increase in activity against SpyTag002 (SEQ ID NO: 3) was 35%.

B1: SpyCatcher002 D5A variant with proline at position 92 and aspartic acid at position 100 (SEQ ID NO:47) (designed binder)
chain: GAMVATLSGLSGEQGPSGDMTTEEDSATHIKFSKRDEDGRELAGATMELRDSSGKTISTWISDGHVKDFYLYPGKYTFVETAAPDGYEVATPITFTVNEDGQVTVNGEATKGDAHT
As to B1, the “reaction rate (second-order rate constant)” value (from here on “reaction rate”) in the assay with AP-SpyTag002-MBP was determined as 20300 M⁻¹ s⁻¹.

B2: SpyCatcher002 D5A variant with aspartic acid at position 100 (SEQ ID NO:46) (designed binder)
chain: GAMVATLSGLSGEQGPSGDMTTEEDSATHIKFSKRDEDGRELAGATMELRDSSGKTISTWISDGHVKDFYLYPGKYTFVETAAPDGYEVATAITFTVNEDGQVTVNGEATKGDAHT
For B2, the “reaction rate” value with AP-SpyTag002-MBP was determined as 15500 M⁻¹ s⁻¹.

B3: SpyCatcher002 D5A variant with proline at position 92 (SEQ ID NO:45) (designed binder)
chain: GAMVATLSGLSGEQGPSGDMTTEEDSATHIKFSKRDEDGRELAGATMELRDSSGKTISTWISDGHVKDFYLYPGKYTFVETAAPDGYEVATPITFTVNEQGQVTVNGEATKGDAHT
Turning to B3, in the assay with AP-SpyTag002-MBP, the “reaction rate” value was found to be 14000 M⁻¹ s⁻¹.
